Reference: publication PMC10418980, “Synthesis and Evaluation of ^177Lu-DOTA-PD-L1-i and ^225Ac-HEHA-PD-L1-i as Potential Radiopharmaceuticals for Tumor Microenvironment-Targeted Radiotherapy” (International Journal of Molecular Sciences, 2023)

How the values were obtained:
[1] = Stability in labeling medium (water/ascorbic acid/sodium acetate) by radio-HPLC; type: physicochemical; conditions: injectable-grade water/ascorbic acid/sodium acetate; 72 h after labeling (225Ac-HEHA: 72 h after purification); reversed-phase C18 radio-HPLC (225Ac: 1 mL fractions counted in NaI(Tl) detector)
Experimental: (§1) The radiochemical purity of the radioconjugates was determined by reversed-phase HPLC (Waters) with radiometric and UV-vis detectors. The analysis was carried out with a Discovery C18 column (particle size: 5 µm, length: 25 cm, diameter: 4.6 mm). A linear gradient (rate flow: 1 mL/min) of CH3CN-0.1% TFA (B)/H2O-0.1%TFA (A), from 100% to 10% of A in 30 min, was used. For ^225Ac-HEHA-PD-L1-i, fractions of 1.0 mL were collected, and the activity was evaluated in a NaI(Tl) detector (Auto In-v-tron 4010; NML Inc., Houston, TX, USA).
(§2) The ^225Ac-HEHA-PD-L1-i and ^177Lu-DOTA-PD-L1-i stability was evaluated in the medium they were obtained after labeling (water/ascorbic acid/sodium acetate) at 0.33, 3, 24, 48, and 72 h with radio-HPLC, as previously described. The conjugate solutions were diluted in human serum (5x) for stability assessment. The conjugates (n = 3) were incubated at 37 °C, and samples were taken at 0.33, 3, 24, 48, and 72 h.

HCC827 cells = test: Cell viability assay (flow cytometry, Muse Count & Viability Kit); type: cell-based, human; conditions: 5 h
Experimental: The effect of ^177Lu DOTA-PD-L1-i, ^225Ac-HEHA-PD-L1-i, and PD-L1-i on HCC827 cell viability (5 × 10^4) was determined by flow cytometry with the Muse® Count & Viability Kit from Luminex, DiaSorin, USA. Before taking readings with the Muse Cell Analyzer (Merck Millipore, Burlington, MA, USA) previously calibrated with the Muse® System Check kit, the baseline detection was established using a fresh sample of untreated cells that served to delimit the size and granularity of the cell line, as well as the basal viability of the population. Also, the reading window for dead cells was established using an aliquot of the same population treated with 0.5% Triton-X100. Once the detection window for the HCC827 cells was established to discriminate between live and dead cells, 50 µL (2 × 10^4 cells/200 µL) were taken from the cell suspension that had been treated with cold ligand (PD-L1-i, 0.1 µg), with 1.4 MBq of ^177Lu DOTA-PD-L1-i or 0.37 kBq of ^225Ac-HEHA-PD-L1-i for 5 h and then mixed with 450 µL of the viability reagent; after 5 min incubation at room temperature and in the dark, the samples were read in triplicate. For the calculation of the radiation absorbed dose to cell nuclei, the total number of nuclear transformations (N) normalized to the unit of administered activity (Bq^.s/Bq) was obtained with the A(t) mathematical integration (from t = 0 to t = 5 h). […]

[2] = test system: kidney and liver tissues from mice; test: Histopathological assessment (H&E); type: in vivo
Experimental: Healthy lungs, kidneys, liver, and lungs from mice injected i.v. with HCC827 cells were fixed with 4% paraformaldehyde for 24 h at room temperature, embedded in paraffin, and sectioned in 4–5 µm thick sections using a microtome. Paraffin sections of lung samples were deparaffinized in xylene and rehydrated in a series of graded alcohols. Dewaxed tissue sections were stained with hematoxylin and eosin (H&E). The sections were assessed using a light microscope (magnification of 100x) (Zeiss; Mod. Axioscope: Oberkochen, Germany). Images were acquired with a digital camera (5 MP high-speed color; AmScope; Mod.Mu500: Irvine, CA, USA).

[3] = Serum stability by radio-HPLC; type: in vitro ADME, human
Experimental: as §1, §2

[4] = test system: HCC827 human lung cancer cells (PD-L1 positive) vs C6 mouse glioma cells (PD-L1 negative); test: Cellular uptake assay; type: cell-based; conditions: 1 × 10^5 cells/tube in PBS pH 7, 37 °C, 1 h; 177Lu 4 kBq, 225Ac 0.04 kBq; NaI(Tl) counting; n = 6 / n = 3 (method)
Experimental: HCC827 human lung cancer (PD-L1 positive) and C6 mouse glioma (PD-L1 negative) cell lines were cultured in RPMI-1640 medium with penicillin and streptomycin (100 µg/mL) and fetal bovine serum (15%) in 5% CO2 at 37 °C. Cells diluted in PBS (pH 7) (1 × 10^5 cells/tube) received two different treatments: (a) ^177Lu-DOTA-PD-L1-i (4 kBq) (n = 3) and (b) ^225Ac-HEHA-PD-L1-i (0.04 kBq) (n = 3). Cells were incubated with each treatment at 37 °C for 1 h. After incubation, tubes were measured in a NaI(Tl) detector to determine the initial activity (100%). The tubes were centrifuged at 500× g for 10 min. Then, a mixture of acetic acid/0.5 M NaCl was added, and the centrifugation was repeated. The liquid was removed, and the button activity was measured, corresponding to the percentage of activity captured by the cells regarding the initial activity.

healthy mice = test: Biodistribution in healthy mice; type: in vivo, Nu/Nu mice; conditions: tail vein, 3.7 MBq 177Lu or 3.7 kBq 225Ac, 0.5-96 h, n = 3
Experimental: (§3) Under an approved protocol (No. 07-2018-2021), all animal procedures followed the ethical regulations for handling laboratory animals (NOM-062-ZOO-1999) and the Institutional Animal Care and Use Committee requirements. Male Nu/Nu (UPEAL, […], I.PN., Mexico City, Mexico) mice aged 6–8 weeks were maintained in a pathogen-free barrier facility. Mice were injected with 3.7 MBq (50 µL) of ^177Lu DOTA-PD-L1-I or 3.7 kBq (50 µL) of ^225Ac-HEHA-PD-L1-i in the tail vein and sacrificed at 0.5, 1, 3, 24, 72, and 96 h (n = 3). The heart, lungs, liver, pancreas, spleen, kidneys, small intestine, brain, and stomach were dissected to be measured in a NaI(Tl) radioactivity detector. The results are expressed as the percentage of injected dose (%ID) per organ. Blood samples were also extracted, and the activity was recorded as %ID/g. A second group of mice was inoculated intravenously with 1 × 10^6 HCC827 cells. The animals were treated with 3.7 MBq (50 µL) of ^177Lu DOTA-PD-L1-i (n = 3) or 3.7 kBq (50 µL) of ^225Ac-HEHA-PD-L1-i (n = 3) via tail vein injection on day five post-tumor cell inoculation. The animals were dissected as described above. In the case of ^177Lu DOTA-PD-L1-i, radioisotopic/X-ray in vivo/ex vivo images were obtained in a Preclinical Imaging System (Bruker, XTREME). For in vivo imaging, mice were anesthetized with oxygen and 2% isoflurane.

[5] = test system: mice intravenously injected with HCC827 lung cancer cells (PD-L1+); test: Biodistribution and biokinetic models in mice with HCC827 lung micrometastases; type: in vivo, Nu/Nu mice
Experimental: as §3
The %ID values were used to obtain the biokinetic models ( qht ). The Ah(t) functions were obtained by decay-correcting the biokinetic models, that is, by adding to the biological constant (λB ) the radioactive constant (λR ), as follows (Equation (1)):(1) At=Be^−(λR+λB)t+Ce^−(λR+λB)t+De^−(λR+λB)t

[6] = test system: lungs of athymic mice with or without HCC827 lung micrometastases; test: Radioisotopic/X-ray imaging; type: in vivo
Experimental: as §3

[7] = test system: mice inoculated with HCC827 lung cancer cells; test: Creatinine and liver enzyme levels; type: in vivo
Experimental: Mouse blood samples collected at 96 h after radiopharmaceutical administration were used for the determination of alanine aminotransferase (ALT), creatinine, and aspartate aminotransferase (AST). Creatinine was measured titrimetrically. The picrate method was used. AST and ALT were quantified using a Roche Diagnostics kit for UV assays.

[8] = lungs invaded with HCC827 cancer cells
[9] = ex vivo lungs, radioisotopic imaging

SMILES: CCCC[C@H]1C(=O)N(C)[C@@H](CCCC)C(=O)N[C@@H](CCCNC(=S)Nc2ccc(C[C@H]3CN(CC(=O)O)CCN(CC(=O)O)CCN(CC(=O)O)CCN3CC(=O)O)cc2)C(=O)N[C@H](C(=O)NCC(N)=O)CSCC(=O)N[C@@H](Cc2ccc(O)cc2)C(=O)N(C)[C@@H](C)C(=O)N[C@@H](CC(N)=O)C(=O)N2CCC[C@H]2C(=O)N[C@@H](Cc2c[nH]cn2)C(=O)N[C@@H](CC(C)C)C(=O)N2C[C@H](O)C[C@H]2C(=O)N[C@@H](Cc2c[nH]c3ccccc23)C(=O)N[C@@H](CO)C(=O)N[C@@H](Cc2cn(C)c3ccccc23)C(=O)N1C [^177Lu-DOTA-PD-L1-i, metal not drawn]
- radiochemical purity after 72 h in water [1]: greater than 97.5 ± 0.5%
- net decrease in alive cells regarding the control group (representative histogram) (HCC827 cells; 177Lu 15 Gy, 225Ac 5 Gy): 30%
- net decrease viability (HCC827 cells; 177Lu-DOTA-PD-L1-i 15 Gy (1.4 MBq/20,000 cells), 225Ac-HEHA-PD-L1-i 5 Gy (0.37 kBq/20,000 cells), PD-L1-i 0.1 µg/20,000 cells, read in triplicate): 31.42 ± 2.01%
- histological staining (H&E) of liver and kidney ([2]; mice exposed to the radiopharmaceuticals): no pathologic changes in the liver and kidney
- remaining at 72 h ([3]; diluted in human serum (5x), 37 °C, 72 h, reversed-phase C18 radio-HPLC, n = 3, read-out: radiochemical purity after 72 h in human serum): > 97.5%
- uptake in HCC827 cells relative to C6 cells [4]: approximately fourteen
- biodistribution profile in healthy mice (healthy mice): rapid blood clearance with renal and hepatobiliary elimination and no accumulation in normal tissues
- λ, kidney, fast phase ([5]; kidneys, biokinetic model): 3.65
- λ, kidney, slow elimination slope ([5]; kidneys, biokinetic model): 0.009
- half-life, kidney, slow elimination slope ([5]; kidneys, t1/2 = ln2/λ): 77 h
- half-life, kidney, fast phase ([5]; kidneys, t1/2 = ln2/λ, 177Lu 3.7 MBq, 225Ac 3.7 kBq i.v.): 0.19 h
- λ, liver, fast phase ([5]; liver, biokinetic model): 1.23
- λ, liver, slow phase ([5]; liver, biokinetic model): 0.01
- fraction of activity taken up in the liver cleared rapidly ([5]; liver, fast phase (hepatobiliary elimination), 3.7 MBq i.v.): seventy-four
- fraction of activity taken up in the liver cleared slowly ([5]; liver, slow phase): twenty-six
- half-life, liver, fast phase ([5]; liver, t1/2 = ln2/λ): 0.56 h
- half-life, liver, slow phase ([5]; liver, t1/2 = ln2/λ, 177Lu 3.7 MBq, 225Ac 3.7 kBq i.v.): 69 h
- fraction of lung uptake activity with the long half-life [5, 8]: Ninety
- fraction of lung uptake activity with the short half-life [5, 8]: ten
- half-life, lung, long component [5, 8]: 346.5 h
- half-life, lung, short component [5, 8]: 17.3 h
- lung uptake pattern, average number of emitted photons per normalized area, mice in which metastases were not induced [6, 9]: 78 ± 32 photons/cm^2
- lung uptake pattern, average number of emitted photons per normalized area, mice with metastatic HCC827 cells [6, 9]: 298 ± 82 photons/cm^2
- tissue accumulation in radioisotopic images ([6]; in vivo and ex vivo, athymic mice with lung micrometastases, 30 min, 24 and 72 h): the only tissue that accumulated the radiotracer was the lung invaded by HCC827 cancer cells
- Creatinine ([7]; 96 h after 3.7 MBq 177Lu or 3.7 kBq 225Ac, day 5 after i.v. HCC827 inoculation, mean ± SD, n = 3, control 0.198 ± 0.057): 0.199 ± 0.062 mg/dL
- Alanine Aminotransferase (ALT) ([7]; 96 h after 3.7 MBq 177Lu or 3.7 kBq 225Ac, day 5 after i.v. HCC827 inoculation, mean ± SD, n = 3, control 71 ± 7): 68 ± 4 IU/L
- Aspartate Aminotransferase (AST) ([7]; 96 h after 3.7 MBq 177Lu or 3.7 kBq 225Ac, day 5 after i.v. HCC827 inoculation, mean ± SD, n = 3, control 150 ± 13): 143 ± 14 IU/L
- effect on the function of liver and kidney ([7]; ALT, creatinine, AST vs control group (Table A1)): No significant cytotoxic effect

SMILES: CCCC[C@H]1C(=O)N(C)[C@@H](CCCC)C(=O)N[C@@H](CCCNC(=S)Nc2ccc(CC3CN(CC(=O)O)CCN(CC(=O)O)CCN(CC(=O)O)CCN(CC(=O)O)CCN(CC(=O)O)CCN3CC(=O)O)cc2)C(=O)N[C@H](C(=O)NCC(N)=O)CSCC(=O)N[C@@H](Cc2ccc(O)cc2)C(=O)N(C)[C@@H](C)C(=O)N[C@@H](CC(N)=O)C(=O)N2CCC[C@H]2C(=O)N[C@@H](Cc2c[nH]cn2)C(=O)N[C@@H](CC(C)C)C(=O)N2C[C@H](O)C[C@H]2C(=O)N[C@@H](Cc2c[nH]c3ccccc23)C(=O)N[C@@H](CO)C(=O)N[C@@H](Cc2cn(C)c3ccccc23)C(=O)N1C (stereo partly shown) [^225Ac-HEHA-PD-L1-i, metal not drawn]
- histological staining (H&E) of liver and kidney ([2]; mouse, in vivo): no pathologic changes in the liver and kidney
- radiochemical purity after 72 h in human serum [3]: 64 ± 4%
- rate of decrease of radiochemical purity in human serum [3]: approximately 0.388 %/h
- Ac-225 activity present in bone ([5]; mouse, in vivo): 0.3 ± 0.2 % ID/g
- biokinetic model A(t), kidney ([5]; mouse, in vivo): 12.60e^-3.65t + 8.14e^-2.54t
- biokinetic model A(t), liver ([5]; mouse, in vivo): 25.3e^-1.90t + 17.4e^-0.01t
- biokinetic model A(t), lung (HCC827 cancer cells) ([5]; mouse, in vivo): 11.20e^-0.002t + 1.73e^-1.20t
- half-life, kidney, second component ([5]; mouse, in vivo): 0.27 h
- injected dose in kidney eliminated with half-life 0.19 h ([5]; mouse, in vivo): 12.6 % of the injected dose
- injected dose in kidney eliminated with half-life 0.27 h ([5]; mouse, in vivo): 8.14 % of the injected dose
- injected dose retained in liver and eliminated with the slow half-life ([5]; mouse, in vivo): 17.4 % of the injected dose
- half-life, kidney, fast phase ([5]; mouse, in vivo, iv): 0.19 h
- half-life, liver, slow phase ([5]; mouse, in vivo, iv): 69.3 h
- uptake in lung micrometastases ([5]; mouse, in vivo, iv): > 30 % ID
- effect on the function of liver and kidney ([7]; mouse, in vivo): No significant cytotoxic effect
